Results published in the supplement of paper PMC10065799, “High-throughput profiling of sequence recognition by tyrosine kinases and SH2 domains using bacterial peptide display” (eLife, 2023).

Key:
AncSZ = assay: phosphorylation enrichment, bacterial display (enrichment ratio); higher = better substrate or ligand; peptides without Tyr show the background
EPHB1 = EPHB1 (UniProt P54762); assay: as above
EPHB2 = EPHB2 (UniProt P29323); assay: as above
FGFR1 = FGFR1 (UniProt P11362); assay: as above
FGFR3 = FGFR3 (UniProt P22607); assay: as above
Fer (mouse) = assay: as above
Fes = Fes (UniProt P07332); assay: as above
Fyn = Fyn (UniProt P06241); assay: as above
Hck = Hck (UniProt P08631); assay: as above
Jak2 = Jak2 (UniProt O60674); assay: as above
MERTK = MERTK (UniProt Q12866); assay: as above
c-Abl (mouse) = assay: as above
c-Src = assay: as above
Grb2 SH2 = Grb2 SH2 (UniProt P62993); assay: SH2 binding enrichment of the phosphorylated peptide, bacterial display (enrichment ratio); higher = better substrate or ligand; peptides without Tyr show the background
SHP2-C SH2 = assay: as above
c-Src SH2 = assay: as above
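Throughout, for SH2 binding enrichment of the phosphorylated peptide, bacterial display: peptide library displayed on the E. coli surface as eCPX fusions, selected cells deep-sequenced, score is each peptide's frequency after selection divided by its frequency in the input.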
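Throughout, for phosphorylation enrichment, bacterial display: 11-residue human phosphosite peptides and single-mutation variants displayed on the E. coli surface, counted by deep sequencing, each peptide's frequency after selection divided by its frequency in the unselected input library; frequency after pTyr selection over input frequency; kinase dosed for 20-30% of maximal phosphorylation in three min.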

Chain of Grb2 SH2 (P62993 whole entry, looked up): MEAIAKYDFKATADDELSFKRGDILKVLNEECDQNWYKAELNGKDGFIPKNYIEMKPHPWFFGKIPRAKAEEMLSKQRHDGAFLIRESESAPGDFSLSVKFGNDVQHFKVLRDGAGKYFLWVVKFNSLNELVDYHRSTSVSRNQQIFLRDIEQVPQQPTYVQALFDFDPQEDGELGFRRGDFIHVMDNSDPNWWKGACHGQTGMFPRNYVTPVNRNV
Chain of Hck (P08631 whole entry, looked up): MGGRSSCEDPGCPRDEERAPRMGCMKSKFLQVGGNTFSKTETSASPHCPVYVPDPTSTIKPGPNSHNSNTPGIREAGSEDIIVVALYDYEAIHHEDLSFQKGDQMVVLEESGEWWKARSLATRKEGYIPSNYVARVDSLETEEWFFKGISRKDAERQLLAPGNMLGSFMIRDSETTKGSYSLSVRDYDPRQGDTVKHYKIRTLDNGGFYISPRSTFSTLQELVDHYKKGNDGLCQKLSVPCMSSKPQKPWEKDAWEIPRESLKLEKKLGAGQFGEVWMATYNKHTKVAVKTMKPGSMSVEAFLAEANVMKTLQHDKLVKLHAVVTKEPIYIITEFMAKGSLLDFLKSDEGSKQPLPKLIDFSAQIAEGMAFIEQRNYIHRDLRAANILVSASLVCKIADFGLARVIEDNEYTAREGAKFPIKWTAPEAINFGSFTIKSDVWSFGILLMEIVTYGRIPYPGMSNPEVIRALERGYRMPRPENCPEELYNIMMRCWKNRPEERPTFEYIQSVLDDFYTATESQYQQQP
Chain of FGFR1 (P11362 whole entry, looked up): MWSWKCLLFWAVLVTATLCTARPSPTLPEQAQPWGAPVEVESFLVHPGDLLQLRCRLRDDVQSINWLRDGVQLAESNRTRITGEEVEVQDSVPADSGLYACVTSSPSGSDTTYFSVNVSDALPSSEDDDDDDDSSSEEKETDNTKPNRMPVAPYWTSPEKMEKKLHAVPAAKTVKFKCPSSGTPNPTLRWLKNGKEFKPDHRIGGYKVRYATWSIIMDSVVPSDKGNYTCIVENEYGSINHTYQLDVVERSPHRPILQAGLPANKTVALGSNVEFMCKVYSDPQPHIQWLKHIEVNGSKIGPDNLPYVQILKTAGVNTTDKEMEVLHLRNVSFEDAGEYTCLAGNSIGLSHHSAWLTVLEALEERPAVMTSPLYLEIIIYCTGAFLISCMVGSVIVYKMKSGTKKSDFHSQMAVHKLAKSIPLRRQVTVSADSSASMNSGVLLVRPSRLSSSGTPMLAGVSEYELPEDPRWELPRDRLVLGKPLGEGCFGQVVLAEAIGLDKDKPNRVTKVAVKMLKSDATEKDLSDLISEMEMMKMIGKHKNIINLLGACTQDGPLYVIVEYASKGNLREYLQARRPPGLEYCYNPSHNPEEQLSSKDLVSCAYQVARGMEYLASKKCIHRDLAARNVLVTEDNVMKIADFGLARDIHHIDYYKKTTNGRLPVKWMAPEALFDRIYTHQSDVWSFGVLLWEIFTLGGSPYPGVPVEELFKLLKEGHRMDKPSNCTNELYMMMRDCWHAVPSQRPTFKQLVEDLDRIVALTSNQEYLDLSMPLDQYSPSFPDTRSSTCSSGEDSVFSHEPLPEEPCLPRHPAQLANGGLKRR
Chain of Fes (P07332 whole entry, looked up): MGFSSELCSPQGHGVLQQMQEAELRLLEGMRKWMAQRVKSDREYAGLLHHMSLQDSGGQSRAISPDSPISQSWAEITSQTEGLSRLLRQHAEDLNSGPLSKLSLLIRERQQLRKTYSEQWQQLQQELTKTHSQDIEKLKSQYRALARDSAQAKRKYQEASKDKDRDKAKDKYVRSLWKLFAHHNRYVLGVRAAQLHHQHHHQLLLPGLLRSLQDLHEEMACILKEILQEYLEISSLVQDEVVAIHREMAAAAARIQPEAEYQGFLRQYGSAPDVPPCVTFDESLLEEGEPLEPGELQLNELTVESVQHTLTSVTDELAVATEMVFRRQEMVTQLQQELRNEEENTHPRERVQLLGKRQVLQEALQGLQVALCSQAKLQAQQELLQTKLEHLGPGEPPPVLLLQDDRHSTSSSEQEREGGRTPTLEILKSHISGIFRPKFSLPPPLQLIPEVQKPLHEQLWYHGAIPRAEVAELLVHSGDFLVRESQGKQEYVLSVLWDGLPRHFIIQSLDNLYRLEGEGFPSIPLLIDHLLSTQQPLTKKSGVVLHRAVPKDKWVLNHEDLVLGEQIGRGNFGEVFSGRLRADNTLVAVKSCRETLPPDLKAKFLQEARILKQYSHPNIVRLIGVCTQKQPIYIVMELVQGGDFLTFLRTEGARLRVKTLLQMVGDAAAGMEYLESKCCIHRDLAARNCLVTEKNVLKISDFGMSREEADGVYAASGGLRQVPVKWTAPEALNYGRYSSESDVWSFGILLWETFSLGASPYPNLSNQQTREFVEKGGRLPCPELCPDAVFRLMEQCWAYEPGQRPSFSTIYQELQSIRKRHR
Chain of EPHB2 (P29323 whole entry, looked up): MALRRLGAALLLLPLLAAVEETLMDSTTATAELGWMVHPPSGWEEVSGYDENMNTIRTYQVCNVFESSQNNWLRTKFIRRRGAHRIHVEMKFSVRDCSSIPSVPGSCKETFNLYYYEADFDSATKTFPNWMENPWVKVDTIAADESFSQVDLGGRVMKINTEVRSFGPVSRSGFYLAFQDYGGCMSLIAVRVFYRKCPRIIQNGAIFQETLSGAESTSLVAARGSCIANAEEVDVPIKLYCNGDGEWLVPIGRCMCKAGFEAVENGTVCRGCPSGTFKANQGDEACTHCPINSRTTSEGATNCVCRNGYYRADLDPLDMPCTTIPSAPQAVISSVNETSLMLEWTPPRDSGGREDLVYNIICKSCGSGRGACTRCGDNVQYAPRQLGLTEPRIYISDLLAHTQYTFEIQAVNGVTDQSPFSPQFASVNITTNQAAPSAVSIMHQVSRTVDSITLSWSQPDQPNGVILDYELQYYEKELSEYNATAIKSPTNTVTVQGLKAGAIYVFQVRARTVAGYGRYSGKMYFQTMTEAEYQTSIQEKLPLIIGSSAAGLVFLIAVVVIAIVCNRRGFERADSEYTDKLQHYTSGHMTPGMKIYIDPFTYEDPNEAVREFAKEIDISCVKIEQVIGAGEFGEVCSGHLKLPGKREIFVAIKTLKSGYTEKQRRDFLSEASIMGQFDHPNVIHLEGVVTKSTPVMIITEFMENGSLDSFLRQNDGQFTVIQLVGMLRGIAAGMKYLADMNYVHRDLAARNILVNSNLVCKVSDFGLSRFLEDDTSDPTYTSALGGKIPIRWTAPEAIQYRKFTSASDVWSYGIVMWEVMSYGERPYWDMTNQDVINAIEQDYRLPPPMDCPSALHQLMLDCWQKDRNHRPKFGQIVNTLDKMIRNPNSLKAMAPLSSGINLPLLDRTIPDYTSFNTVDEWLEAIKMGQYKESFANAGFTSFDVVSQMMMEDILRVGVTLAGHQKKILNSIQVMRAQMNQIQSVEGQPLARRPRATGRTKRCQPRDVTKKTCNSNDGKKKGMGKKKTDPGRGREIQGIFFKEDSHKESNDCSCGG
Chain of EPHB1 (P54762 whole entry, looked up): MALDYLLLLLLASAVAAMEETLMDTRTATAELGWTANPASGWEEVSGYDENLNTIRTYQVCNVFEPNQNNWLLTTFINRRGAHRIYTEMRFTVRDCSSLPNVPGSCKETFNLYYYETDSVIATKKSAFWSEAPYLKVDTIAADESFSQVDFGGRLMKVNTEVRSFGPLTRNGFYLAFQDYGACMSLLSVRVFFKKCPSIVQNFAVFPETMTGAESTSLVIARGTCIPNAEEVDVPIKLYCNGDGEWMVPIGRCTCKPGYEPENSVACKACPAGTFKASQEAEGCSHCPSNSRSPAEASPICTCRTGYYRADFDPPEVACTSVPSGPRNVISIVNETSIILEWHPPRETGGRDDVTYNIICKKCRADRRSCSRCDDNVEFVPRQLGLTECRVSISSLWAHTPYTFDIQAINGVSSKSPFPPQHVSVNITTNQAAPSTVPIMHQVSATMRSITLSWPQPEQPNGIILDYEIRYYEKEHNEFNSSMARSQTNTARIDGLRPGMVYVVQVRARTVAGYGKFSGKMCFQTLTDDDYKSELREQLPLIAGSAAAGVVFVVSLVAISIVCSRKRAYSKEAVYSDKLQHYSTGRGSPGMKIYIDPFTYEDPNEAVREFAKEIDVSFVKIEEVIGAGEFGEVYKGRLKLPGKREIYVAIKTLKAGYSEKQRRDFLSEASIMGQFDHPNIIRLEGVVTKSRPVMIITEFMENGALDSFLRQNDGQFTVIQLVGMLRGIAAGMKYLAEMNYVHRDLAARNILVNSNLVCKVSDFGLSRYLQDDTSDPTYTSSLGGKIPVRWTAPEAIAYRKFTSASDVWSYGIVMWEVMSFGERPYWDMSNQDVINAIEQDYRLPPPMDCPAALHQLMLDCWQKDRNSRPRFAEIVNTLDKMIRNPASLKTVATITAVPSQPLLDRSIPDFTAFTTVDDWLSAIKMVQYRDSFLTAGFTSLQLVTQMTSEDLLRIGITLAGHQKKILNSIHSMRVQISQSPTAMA
Chain of Fyn (P06241 whole entry, looked up): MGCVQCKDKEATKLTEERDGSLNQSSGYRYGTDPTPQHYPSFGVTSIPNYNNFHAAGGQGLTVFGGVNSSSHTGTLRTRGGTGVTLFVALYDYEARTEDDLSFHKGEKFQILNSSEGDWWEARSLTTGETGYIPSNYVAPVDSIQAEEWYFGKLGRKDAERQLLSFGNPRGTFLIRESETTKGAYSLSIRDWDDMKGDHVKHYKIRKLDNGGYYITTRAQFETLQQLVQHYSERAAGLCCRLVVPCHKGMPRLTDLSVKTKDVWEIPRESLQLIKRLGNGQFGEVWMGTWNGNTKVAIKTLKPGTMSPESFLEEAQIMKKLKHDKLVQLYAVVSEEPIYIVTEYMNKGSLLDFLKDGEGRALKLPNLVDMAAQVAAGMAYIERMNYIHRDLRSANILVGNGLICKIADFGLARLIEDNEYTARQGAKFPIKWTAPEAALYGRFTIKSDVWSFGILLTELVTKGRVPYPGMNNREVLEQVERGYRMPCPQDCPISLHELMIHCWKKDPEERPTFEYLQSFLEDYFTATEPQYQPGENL

Row | Sequence | phosphorylation enrichment (AncSZ) | phosphorylation enrichment (EPHB1) | phosphorylation enrichment (EPHB2) | phosphorylation enrichment (FGFR1) | phosphorylation enrichment (FGFR3) | phosphorylation enrichment (Fer (mouse)) | phosphorylation enrichment (Fes) | phosphorylation enrichment (Fyn) | phosphorylation enrichment (Hck) | phosphorylation enrichment (Jak2) | phosphorylation enrichment (MERTK) | phosphorylation enrichment (c-Abl (mouse)) | phosphorylation enrichment (c-Src) | SH2 binding enrichment (Grb2 SH2) | SH2 binding enrichment (SHP2-C SH2) | SH2 binding enrichment (c-Src SH2)
1 | AKKKMYSHKTK [AGXT_Y231_R233H] | 0.961 | 1.01 | 0.823 | 0.621 | 2.37 | 1.12 | 1.63 | 0.609 | 0.666 | 3.12 | 0.689 | 1.62 | 0.727 | 1.44 | 1.42 | 1.34
2 | AKKMKYFEGVS [PRKDC_Y682_I680M] | 0.493 | 0.393 | 0.3 | 0.395 | 0.434 | 0.311 | 0.559 | 0.419 | 0.351 | 0.499 | 0.318 | 0.404 | 0.394 | 0.725 | 0.539 | 0.496
3 | AKVKPYINGTS [IBTK_Y1064_V1065I] | 0.471 | 0.295 | 0.274 | 0.297 | 0.408 | 0.274 | 0.503 | 0.343 | 0.359 | 0.369 | 0.358 | 0.404 | 0.294 | 0.999 | 1.05 | 0.737
4 | AKYLGYPPPEI [KDR_Y357] | 0.543 | 0.374 | 0.535 | 0.395 | 0.556 | 0.398 | 0.849 | 0.321 | 0.512 | 0.594 | 0.378 | 0.538 | 0.385 | 0.831 | 0.749 | 0.43
5 | ALAHEYHGGGG [HBB_Y146_K145E] | 0.469 | 0.397 | 0.314 | 0.41 | 0.361 | 0.354 | 0.461 | 0.361 | 0.425 | 0.599 | 0.287 | 0.493 | 0.41 | 0.776 | 0.627 | 0.696
6 | ALAQKYHGGGG [HBB_Y146_H144Q] | 0.492 | 0.372 | 0.366 | 0.348 | 0.497 | 0.296 | 0.491 | 0.335 | 0.368 | 0.462 | 0.363 | 0.592 | 0.404 | 0.782 | 0.743 | 0.506
7 | ALRHFYKLNII [ETV6_Y402_YF] | 0.828 | 0.522 | 0.535 | 0.462 | 0.628 | 0.502 | 1.03 | 0.471 | 0.482 | 0.875 | 0.44 | 0.84 | 0.439 | 1.25 | 2.11 | 1.27
8 | ALTRSYVREKV [CYP2C8_Y243_I244V] | 0.571 | 0.42 | 0.462 | 0.364 | 0.522 | 0.398 | 0.532 | 0.387 | 0.437 | 0.353 | 0.459 | 0.617 | 0.316 | 0.804 | 0.551 | 0.495
9 | ALWYIYSHTRS [ENG_Y614] | 1.1 | 0.679 | 0.768 | 0.487 | 1.03 | 0.572 | 1.33 | 0.47 | 0.523 | 1.14 | 0.418 | 0.807 | 0.423 | 0.931 | 0.711 | 0.451
10 | ANAYIYVVQLP [L1CAM_Y420] | 1.33 | 0.875 | 0.735 | 1.25 | 1.18 | 0.478 | 1.17 | 0.841 | 0.714 | 1.14 | 1.53 | 0.734 | 1.04 | 1.37 | 1.44 | 0.814
11 | ANNPLYKEATS [ITGB3_Y773] | 0.395 | 0.363 | 0.499 | 0.349 | 0.379 | 0.228 | 0.53 | 0.343 | 0.385 | 0.406 | 0.316 | 0.635 | 0.3 | 1.04 | 0.913 | 0.53
12 | APSEFYDGDHD [HDAC3_Y414_N411S] | 1.3 | 0.659 | 0.55 | 0.78 | 0.923 | 0.639 | 1.35 | 0.615 | 0.528 | 1.32 | 0.51 | 0.932 | 0.565 | 1.1 | 0.733 | 0.544
13 | ARGTRYRFVSQ [UCN3_Y95_YF] | 0.597 | 0.416 | 0.41 | 0.483 | 0.535 | 0.492 | 0.548 | 0.52 | 0.546 | 0.742 | 0.48 | 0.63 | 0.607 | 0.627 | 0.407 | 0.458
14 | ARLEFCENEKK [IRS1_Y47_Y47C_YF] | 0.983 | 0.636 | 0.575 | 0.581 | 0.926 | 0.568 | 1.23 | 0.515 | 0.402 | 1.02 | 0.434 | 0.868 | 0.484 | 0.743 | 0.686 | 0.626
15 | ARTNEYKIIRS [INA_Y87_T92S] | 0.435 | 0.394 | 0.372 | 0.282 | 0.406 | 0.33 | 0.563 | 0.406 | 0.316 | 0.454 | 0.407 | 0.337 | 0.407 | 1.06 | 0.859 | 0.514
16 | ASKEPYFVRCI [MYO1D_Y585_YF] | 1.38 | 0.762 | 0.734 | 0.449 | 0.93 | 0.569 | 1.77 | 0.622 | 0.659 | 1.22 | 0.574 | 0.938 | 0.611 | 0.904 | 0.448 | 0.398
17 | ASKEPYYVHCI [MYO1D_Y585_R588H] | 0.953 | 1.96 | 1.21 | 1.89 | 1.36 | 0.506 | 0.974 | 0.482 | 0.554 | 0.755 | 0.636 | 0.627 | 0.576 | 0.924 | 0.889 | 0.685
18 | ASQEEYSAMRD [KRAS_Y64_G60S] | 1.08 | 0.577 | 0.58 | 0.714 | 0.68 | 0.435 | 0.946 | 0.487 | 0.531 | 0.976 | 0.496 | 0.681 | 0.508 | 0.812 | 0.502 | 0.77
19 | ATPSRYMTFLH [DYNC2H1_Y2872] | 0.667 | 0.505 | 0.403 | 0.329 | 0.574 | 0.457 | 0.748 | 0.435 | 0.487 | 0.656 | 0.396 | 0.527 | 0.482 | 0.757 | 8.55 | 1.32
20 | ATQDNYVLEVR [PTPRZ1_Y2179_D2178N] | 0.934 | 0.502 | 0.458 | 0.489 | 0.676 | 0.486 | 1.08 | 0.452 | 0.411 | 0.821 | 0.45 | 0.6 | 0.38 | 0.651 | 0.557 | 0.628
21 | AVAFLYYKSIG [ADGRL4_Y301_V300L] | 1.09 | 0.555 | 0.54 | 0.566 | 0.796 | 0.46 | 1.42 | 0.417 | 0.518 | 1.24 | 0.469 | 1.07 | 0.459 | 0.722 | 0.559 | 0.461
22 | CDYKKYGKGLR [ZNF445_Y433_Y428C] | 0.565 | 0.284 | 0.362 | 0.404 | 0.445 | 0.318 | 0.576 | 0.364 | 0.349 | 0.563 | 0.335 | 0.525 | 0.299 | 0.882 | 0.805 | 0.6
23 | CFTRQYTLPPG [HSPB1_Y142_K141Q] | 0.976 | 0.577 | 0.57 | 0.553 | 0.656 | 0.496 | 0.943 | 0.388 | 0.497 | 0.901 | 0.399 | 0.722 | 0.361 | 0.773 | 0.794 | 0.523
24 | CKLCQYFLDHL [ATRX_Y1849_Y1847C_YF] | 1.28 | 0.571 | 0.612 | 0.689 | 0.661 | 0.442 | 1.18 | 0.449 | 0.456 | 1.16 | 0.49 | 0.89 | 0.766 | 1.46 | 1.18 | 1.1
25 | CKLCQYYLDHL [ATRX_Y1849_Y1847C] | 0.795 | 0.673 | 0.419 | 0.579 | 0.613 | 0.423 | 0.779 | 0.515 | 0.437 | 0.806 | 0.419 | 0.593 | 1.57 | 1.54 | 1.67 | 1.39
26 | CNSFRYGGGGG [NPPA_Y151] | 0.857 | 0.35 | 0.552 | 0.389 | 0.469 | 0.488 | 0.766 | 0.439 | 0.349 | 0.5 | 0.348 | 0.597 | 0.311 | 0.692 | 1.29 | 0.586
27 | CNTIHYNFMCN [TP53_Y234_T230N_YF] | 0.787 | 0.438 | 0.4 | 0.513 | 0.515 | 0.483 | 0.822 | 0.419 | 0.531 | 0.636 | 0.357 | 0.601 | 0.498 | 1.41 | 1.27 | 2.09
28 | CPSLLYSPVSS [CAMKK2_Y128_P127L] | 1.44 | 4.73 | 4.13 | 1.38 | 1.36 | 12.2 | 2.02 | 1.87 | 6.11 | 1.28 | 8.18 | 1.06 | 3.5 | 0.784 | 0.682 | 1.07
29 | CTNPQYLAAGS [RABL3_Y185_R184Q] | 0.724 | 0.487 | 0.505 | 0.465 | 0.609 | 0.47 | 0.849 | 0.537 | 0.505 | 0.778 | 0.424 | 0.602 | 0.409 | 0.885 | 0.721 | 0.589
